Biological target: Glypican-3 (GPC3) (UniProt P51654 25-554)
Assay: electrochemical sandwich aptasensor (DPV silver stripping; EIS); GPC3 captured by GPC3 antibody on Au NPs@rGO/SPE; aptamer on H-rGO-Pd NPs; response 0.01-100 ug/mL, LOD 3.30 ng/mL (not a Kd); PBS 0.1 mol/L as electrolyte; probe in Tris-EDTA buffer; 5.0 umol/L GPC3Apt; response time 30 min; incubation temperature tested 4-37 C; pH not given in material
Details: protein: commercial; label: adsorbed on H-rGO-Pd NPs nanozyme (signal probe)

Sequence of Glypican-3 (GPC3) (P51654 25-554): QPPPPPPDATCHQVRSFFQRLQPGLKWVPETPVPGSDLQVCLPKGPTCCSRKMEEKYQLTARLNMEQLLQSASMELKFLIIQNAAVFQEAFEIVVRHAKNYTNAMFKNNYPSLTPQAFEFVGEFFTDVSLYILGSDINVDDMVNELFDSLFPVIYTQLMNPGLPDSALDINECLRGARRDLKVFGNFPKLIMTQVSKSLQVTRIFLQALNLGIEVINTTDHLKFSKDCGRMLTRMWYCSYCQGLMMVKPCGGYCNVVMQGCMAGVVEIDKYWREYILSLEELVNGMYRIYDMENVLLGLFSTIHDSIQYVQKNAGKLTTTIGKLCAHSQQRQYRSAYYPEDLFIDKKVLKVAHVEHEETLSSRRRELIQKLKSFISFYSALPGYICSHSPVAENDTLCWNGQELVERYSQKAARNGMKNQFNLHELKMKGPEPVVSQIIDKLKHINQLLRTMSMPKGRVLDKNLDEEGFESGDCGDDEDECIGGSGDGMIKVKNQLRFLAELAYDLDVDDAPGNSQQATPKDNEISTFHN

B1: GPC3Apt (ssDNA)
DNA: TAACGCTGACCTTAGCTGGATTTTACATGTTCCA
modifications: 5'-NH2
B1: binds.

Reference: publication PMC10004744, “H-rGO-Pd NPs Nanozyme Enhanced Silver Deposition Strategy for Electrochemical Detection of Glypican-3”
